# The RNAGym collection of RNA variant scans (doi:10.1073/pnas.2313332121)
# Variants at the floor of the assay were thinned out.
# B1: TPR 5TU (parent)
# chain: GGAUCUUCUCGAUCUAACAAAAAAGACAAAUCUGCCACAAAGCUUGAGAGCAUCUUCGGAUGCAGAGGCGGCAGCCUUCGGUGGCGCGAUAGCGCCAACGUUCUCAACUAUGACACGCAAAACGCGUGCUCCGUUGAAUGGAGUUUAUCAUG
# Variants of: B1
# Assay: polymerase ribozyme fitness, log enrichment relative to wild type (log ratio); higher = more active; in vitro selection for triplet polymerase activity
# Summary of the method: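 Mutant libraries for each subunit of a heterodimeric triplet polymerase ribozyme were made by PCR and then transcribed. Each library underwent one round of in vitro selection in triplicate: annealing with a biotinylated primer, the partner subunit and triplets, frozen incubation at −7 °C, gel excision of extended constructs, streptavidin-bead capture and RT-PCR. Input and output libraries were Illumina-sequenced, and only genotypes with ≥10 input reads and ≥1 read per output were kept. Fitness is the logarithm, base 2, of genotype enrichment over wild-type enrichment, computed from inverse-variance-weighted replicate averages.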
row,Variant,polymerase ribozyme fitness (log ratio)
1,C27G U78A G83U A91U G94C U135G G136C,-4.03
2,G25U G84U G117A,-3.67
3,A28G U55A G67U A89C C129A G140C,≤ -4.2
4,C27U G67A C75U G86C U144C C149A A150G,≤ -4.2
5,A28U G50C,≤ -4.2
6,A26U U55G G88U G94A G124A C125G G126A A142U,≤ -4.2
7,A26G G68A C85G A120C,≤ -4.2
8,A26U G141U U144G,-3.78
9,A28G U44G C51U C75A C76G G84U G140A,≤ -4.2
10,A26U C54G U148A,≤ -4.2
11,A28U C38A C63U G83A C103A,≤ -4.2
12,A28U C51A C54U C85U C123G C129U,≤ -4.2
13,G25U C43U U53A C87A A91C G140A,≤ -4.2
14,A26U U55A A60C,≤ -4.2
15,A28G U145C,≤ -4.2
16,C27G C32A C93U C96U,-4.06
17,A26C G94C,-1.54
18,A26C G94A,-1.36
19,C27A A52G C95A C129G G140U A142U,≤ -4.2
20,A28G C36U C87A A119U G133A,≤ -4.2
21,A28U C51A A52C C76U U78G A89G,≤ -4.2

row,Variant,polymerase ribozyme fitness (log ratio)
1,A26C C131U,-0.797
2,A26C C32U G48C G143A,≤ -4.2
3,A28G C43G G83U C93A U135G,≤ -4.2
4,A26C C87A,≤ -4.2
5,A26C G59A C76U G84U G88A G126A,≤ -4.2
6,A28U A110C,≤ -4.2
7,C27A C85U,-3.43
8,A26U A60C G80C A91U A121C,≤ -4.2
9,G25U G68U G83U U104G A115C,≤ -4.2
10,A26U U33G C38U A40C U56A G83A A89G A97G G141C,≤ -4.2
11,C27G U31C G62C C63G C85U A142U,≤ -4.2
12,C27A U77A G94A C114U,≤ -4.2
13,A26U G59U C69G A142G,-2.52
14,A26U C63G G80C C85G U109G A122U,≤ -4.2
15,A26C G92U A106G,-0.538
16,C27G C57G U61A A106C,≤ -4.2
17,A28U G133U A137C,≤ -4.2
18,A26U C85U C96U G143U,-3.94
19,A28U G58A G88C G133A A138G G143U,≤ -4.2
20,C27U A73G C79A G140C,≤ -4.2
21,A26C A60U U104C,-3.72

row,Variant,polymerase ribozyme fitness (log ratio)
1,C27U A30U U55A G65U U102C A110G U111G C131A U134A,≤ -4.2
2,C27U U101C,-0.938
3,A26G A37U C75U G92A G133C G143U,≤ -4.2
4,C27U C54G G84A C95G A122G,-2.89
5,C27U C96A C105G,-2.96
6,A28U C57G,-3.84
7,C27A A107G,≤ -4.2
8,A28G A73U,≤ -4.2
9,C27A C36U G74C C75G G84U C93G A97C G117A,≤ -4.2
10,A26G C93A G124A,-4.18
11,G25U G59U C93G C96U U134C,≤ -4.2
12,A28U G88C A91U C118A,≤ -4.2
13,A28C G67C C87A U109A,≤ -4.2
14,A26U C116U,-1.09
15,G25U A49U G50C U61A C95U,-3.07
16,A28U A41C C54A A60C C96A C105U A106U,≤ -4.2
17,A28G C76A A107G G141U U148C,≤ -4.2
18,A28C G94C,-4.04
19,A26U C51U A89G C105G U134G U144A,≤ -4.2
20,C27G A49G A52C U82G A91G,≤ -4.2
21,C27U A47U U53A,-2.28

row,Variant,polymerase ribozyme fitness (log ratio)
1,A26G G50C A91G G117A C125U G140A G143C,≤ -4.2
2,A28G C54G C76U G94A,-4
3,C27U G58A C63A G84U,-2.45
4,A26U A39U G94U A113U A119G U127C G152C,≤ -4.2
5,A26U A107G G141A,≤ -4.2
6,A28G G46A U55G C57A A73U C96A,≤ -4.2
7,A26U U31G C36U G81U C149G,≤ -4.2
8,C27G G143C A150G,≤ -4.2
9,C27U A47U C96A C103A G117A,≤ -4.2
10,C27U A37C G50U C95A,-2.6
11,A28U A64G G68U G83U A121C G143A,≤ -4.2
12,A28U G86A,-4.08
13,A26C U33A G92C C105G,≤ -4.2
14,A28U C63U C72U C93U C105G A142U,≤ -4.2
15,A28U A49C U56A C95A C96U C108U,≤ -4.2
16,C27G A39G A89C G92A U127A,-4.11
17,C27G C85U A91U U109A C118A U127C,≤ -4.2
18,C27G C43A C72U C93A C125G G133U G143A,≤ -4.2
19,G25U C36G A97G U109C,≤ -4.2
20,C27U A47G U77A C85U U146C,≤ -4.2
21,A28U G59C C93U A138G,≤ -4.2
